Earlier results, collected in PMC11346406.

Molecular target: TDP-43 PLD (Homo sapiens) (UniProt Q13148)
Experiment: NMR

Chain of TDP-43 RRM1-RRM2 (Q13148 102-269): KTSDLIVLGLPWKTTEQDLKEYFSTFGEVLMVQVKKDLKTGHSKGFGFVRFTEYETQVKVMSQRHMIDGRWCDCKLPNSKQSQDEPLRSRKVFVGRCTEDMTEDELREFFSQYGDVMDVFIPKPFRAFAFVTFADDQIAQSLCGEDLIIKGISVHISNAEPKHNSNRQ
Chain of TDP-43 PLD (Homo sapiens) (Q13148 274-414): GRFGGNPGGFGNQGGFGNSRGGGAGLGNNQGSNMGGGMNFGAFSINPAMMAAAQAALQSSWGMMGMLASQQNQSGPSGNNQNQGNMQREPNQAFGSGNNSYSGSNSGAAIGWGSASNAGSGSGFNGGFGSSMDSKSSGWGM

Kd: 5 µM
Substance: TDP-43 RRM1-RRM2 (from UniProt Q13148)
